In patent US20050186646:

What was measured:
[1] = molecular target: T1, recombinant double-tagged VWF-A2 peptide
T1 chain: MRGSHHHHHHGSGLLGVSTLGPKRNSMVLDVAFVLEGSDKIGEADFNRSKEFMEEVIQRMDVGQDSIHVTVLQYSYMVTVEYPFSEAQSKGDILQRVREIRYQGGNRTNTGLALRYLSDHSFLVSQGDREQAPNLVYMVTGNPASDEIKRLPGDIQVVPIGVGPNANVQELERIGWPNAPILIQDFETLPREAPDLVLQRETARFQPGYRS

[2] = molecular target: T2, recombinant single-tagged VWF-A2 peptide
T2 chain: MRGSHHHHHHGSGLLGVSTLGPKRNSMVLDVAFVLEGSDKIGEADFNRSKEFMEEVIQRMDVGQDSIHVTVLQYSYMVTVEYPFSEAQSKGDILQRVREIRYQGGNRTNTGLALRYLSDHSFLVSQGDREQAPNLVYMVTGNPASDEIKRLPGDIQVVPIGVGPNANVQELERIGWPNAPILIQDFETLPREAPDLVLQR

B1: ADAMTS-13 (protein)
chain: AAGGILHLELLVAVGPDVFQAHQEDTERYVLTNLNIGAELLRDPSLGAQFRVHLVKMVILTEPEGAPNITANLTSSLLSVCGWSQTINPEDDTDPGHADLVLYITRFDLELPDGNRQVRGVTQLGGACSPTWSCLITEDTGFDLGVTIAHEIGHSFGLEHDGAPGSGCGPSGHVMASDGAAPRAGLAWSPCSRRQLLSLLSAGRARCVWDPPRPQPGSAGHPPDAQPGLYYSANEQCRVAFGPKAVACTFAREHLDMCQALSCHTDPLDQSSCSRLLVPLLDGTECGVEKWCSKGRCRSLVELTPIAAVHGRWSSWGPRSPCSRSCGGGVVTRRRQCNNPRPAFGGRACVGADLQAEMCNTQACEKTQLEFMSQQCARTDGQPLRSSPGGASFYHWGAAVPHSQGDALCRHMCRAIGESFIMKRGDSFLDGTRCMPSGPREDGTLSLCVSGSCRTFGCDGRMDSQQVWDRCQVCGGDNSTCSPRKGSFTAGRAREYVTFLTVTPNLTSVYIANHRPLFTHLAVRIGGRYVVAGKMSISPNTTYPSLLEDGRVEYRVALTEDRLPRLEEIRIWGPLQEDADIQVYRRYGEEYGNLTRPDITFTYFQPKPRQAWVWAAVRGPCSVSCGAGLRWVNYSCLDQARKELVETVQCQGSQQPPAWPEACVLEPCPPYWAVGDFGPCSASCGGGLRERPVRCVEAQGSLLKTLPPARCRAGAQQPAVALETCNPQPCPARWEVSEPSSCTSAGGAGLALENETCVPGADGLEAPVTEGPGSVDEKLPAPEPCVGMSCPPGWGHLDATSAGEKAPSPWGSIRTGAQAAHVWTPAAGSCSVSCGRGLMELRFLCMDSALRVPVQEELCGLASKPGSRREVCQAVPCPARWQYKLAACSVSCGRGVVRRILYCARAHGEDDGEEILLDTQCQGLPRPEPQEACSLEPCPPRWKVMSLGPCSASCGLGTARRSVACVQLDQGQDVEVDEAACAALVRPEASVPCLIADCTYRWHVGTWMECSVSCGDGIQRRRDTCLGPQAQAPVPADFCQHLPKPVTVRGCWAGPCVGQGTPSLVPHEEAAAPGRTTATPAGASLEWSQARGLLFSPAPQPRRLLPGPQENSVQSSACGRQHLEPTGTIDMRGPGQADCAVAIGRPLGEVVTLRVLESSLNCSAGDMLLLWGRLTWRKMCRKLLDMTFSSKTNTLVVRQRCGRPGGGVLLRYGSQLAPETFYRECDMQLFGPWGEIVSPSLSPATSNAGGCRLFINVAPHARIAIHALATNMGAGTEGANASYILIRDTHSLRTTAFHGQQVLYWESESSQAEMEFSEGFLKAQASLRGQYWTLQSWVPEMQDPQSWKGKEGT
cleavage of double-tagged VWF-A2 peptide, ELISA (loss of Tag-100 signal) [1]: the specific cleavage activity by ADAMTS-13 on the VWF-A2 peptide was also demonstrated using three different dilutions of partially isolated ADAMTS-13 (275 µg/mL of total protein) (FIG. 5B)
cleavage of double-tagged VWF-A2 peptide, immunoblot [1]: The cleavage of the double-tagged VWF-A2 peptide by ADAMTS-13 was efficiently detected by immunoblotting
cleavage of VWF-A2 protein, immunoblot (16 kDa band) [2]: Healthy plasma (FIG. 2, lane 1), and partially isolated ADAMTS-13 (FIG. 2, lane 3) produced the expected band of 16 kDa
cleavage of recombinant single-tagged VWF-A2 (16 kDa band) [2]: After one hour incubation, proteolysis by plasma from a healthy individual and the partially isolated enzyme produced the expected 16 kD band corresponding to the sequence 1481-1605 of SEQ ID NO:8 plus the 12 amino acid residues from the His-tag
